T1: mouse BTLA expressed on cells (mouse, UniProt Q7TSA3 30-306)
T1 chain: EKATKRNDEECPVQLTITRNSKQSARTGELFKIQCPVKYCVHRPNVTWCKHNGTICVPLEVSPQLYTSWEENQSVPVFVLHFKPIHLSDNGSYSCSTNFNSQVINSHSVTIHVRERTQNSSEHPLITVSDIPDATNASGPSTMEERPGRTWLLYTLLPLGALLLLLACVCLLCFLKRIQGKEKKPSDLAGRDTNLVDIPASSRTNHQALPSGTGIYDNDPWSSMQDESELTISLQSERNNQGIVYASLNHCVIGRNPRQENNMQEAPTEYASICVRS

B1: human HVEM-Fc (Fc fusion)
chain: LPSCKEDEYPVGSECCPKCSPGYRVKEACGELTGTVCEPCPPGTYIAHLNGLSKCLQCQMCDPAMGLRASRNCSRTENAVCGCSPGHFCIVQDGDHCAACRAYATSSPGQRVQKGGTESQDTLCQNCPPGTFSPNGTLEECQHQTKCSWLVTKAGAGTSSSHWV
modifications: in the FIG. 3H assay biotinylated with NHS-PEO4-Biotin, 2 biotin molecules per HVEM-Fc (sites not given)
B2: mouse HVEM-Fc (Fc fusion)
chain: QPSCRQEEFLVGDECCPMCNPGYHVKQVCSEHTGTVCAPCPPQTYTAHANGLSKCLPCGVCDPDMGLLTWQECSSWKDTVCRCIPGYFCENQDGSHCSTCLQHTTCPPGQRVEKRGTHDQDTVCADCLTGTFSLGGTQEECLPWTNCSAFQQEVRRGTNSTDTTCSSQ

Legend:
[1] = biological target: T2, human BTLA expressed on cells (human, UniProt Q7Z6A9 31-289); assay: FACS binding to transfected 293T cells; bottom panel; axis printed mHVEM:Fc, presumably hHVEM:Fc
T2 sequence (Q7Z6A9 31-289): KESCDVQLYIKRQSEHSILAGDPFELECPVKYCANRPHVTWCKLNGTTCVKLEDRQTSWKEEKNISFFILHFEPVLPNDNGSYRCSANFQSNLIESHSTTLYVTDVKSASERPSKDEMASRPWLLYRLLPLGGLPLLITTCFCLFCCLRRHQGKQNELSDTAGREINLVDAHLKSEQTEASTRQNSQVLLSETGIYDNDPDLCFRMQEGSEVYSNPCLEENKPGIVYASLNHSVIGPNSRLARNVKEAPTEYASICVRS

[2] = biological target: T1, mouse BTLA expressed on cells; assay: FACS binding to transfected 293T cells; top panel
[3] = biological target: T2, human BTLA expressed on cells; assay: FACS binding to transfected 293T cells; top panel

Binder | EC50 [1] [µg/mL] | EC50 [2] [µg/mL] | EC50 [3] [µg/mL]
B1 | > 25 | – | –
B2 | – | 0.8 | 0.5
